Broadly, the koff is the first-order rate constant of dissociation. Higher therefore signals a short-lived complex. Usually kon stands for a measure of how fast the partners come together. A higher kon goes with faster complex formation.

Positions of bridges follow the written chain, without caps; N, C: chain ends. No end group written: not given here.

One series has as its system CAT2 transcript. Conditions: exogenous application; cited from earlier work. The text has this: It is also conceivable that modulation of CAT2 activity by AtPNP-A may not only have implications for plant biotic stress tolerance but may also result in changes in responses to abiotic stress. Activity of CAT2 is required for decomposition of photorespiration-derived H2O2 preventing redox perturbation under ambient growth conditions[59] while CAT2 deficiency causes a defective photorespiration phenotype including suppressed growth[58],[59] and accumulation of H2O2 in leaves. During senescence suppression of CAT2 function, mediated by G-BOX BINDING FACTOR1 (GBF1)[76], decreases CAT2 activ ...

The target in series [1] is T1, bovine liver catalase (CAT) (bovine, UniProt P00432 1-527).
T1 construct: catalase from bovine liver, Sigma C-40; also called bovine CAT; CAT from bovine liver; source: bought: Sigma (C-40)
T1 sequence (looked up): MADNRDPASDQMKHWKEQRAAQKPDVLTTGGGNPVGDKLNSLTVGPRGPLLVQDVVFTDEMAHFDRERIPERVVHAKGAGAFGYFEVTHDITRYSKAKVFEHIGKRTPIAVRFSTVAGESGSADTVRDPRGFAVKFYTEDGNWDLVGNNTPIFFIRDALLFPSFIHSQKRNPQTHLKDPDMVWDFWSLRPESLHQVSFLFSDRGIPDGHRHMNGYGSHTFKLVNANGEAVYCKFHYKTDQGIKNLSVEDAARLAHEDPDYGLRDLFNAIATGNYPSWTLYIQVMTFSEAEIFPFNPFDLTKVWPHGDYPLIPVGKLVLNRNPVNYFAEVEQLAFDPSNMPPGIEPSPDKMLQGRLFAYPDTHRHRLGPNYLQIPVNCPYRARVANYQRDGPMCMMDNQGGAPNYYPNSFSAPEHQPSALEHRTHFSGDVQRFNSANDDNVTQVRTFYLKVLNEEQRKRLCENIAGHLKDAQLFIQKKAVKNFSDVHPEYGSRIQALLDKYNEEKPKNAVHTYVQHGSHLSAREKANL
Kind of series: SPR; Biacore T100, 20 °C; bovine liver CAT immobilised by amine coupling on a CM5 chip; pAtPNP-A at 3.78 μM and consecutive twofold dilutions, 11 injections, flow 100 μL/min; regeneration with glycine pH 2.0; kinetic fit with mass transfer term. The conditions noted are these: both partners purified.

Series [2] has as its system rCAT2. The series is described as follows: Enzymatic activity of rCAT2, Amplex Red catalase assay. Conditions: 100 nM, Amplex Red catalase assay kit; three independent experiments, P < 0.01. Type of series: biochemical, Arabidopsis thaliana. The method, then: (§1) Enzymatic activity of CAT isozymes and total CAT activities of protein extracted from WT and atpnp-a or cat2-2 mutant lines, when indicated sprayed with 1 nM pAtPNP-A or pScr 20 min before harvesting, were determined zymographically and spectrophotometrically, as described in[56]. Relative quantification of intensity of bands corresponding to different CAT isoforms was performed with ImageJ version 1.48 (https://imagej.nih.gov/ij/). Enzymatic activity of the rCAT2 in the presence of absence of 100 nM rAtPNP-A, pAtPNP-A or pScr were determined with the use of Amplex Red catalase assay kit (Invitrogen) according to the manufacturer’s instructions.
(§2) Figure 3 AtPNP-A directly interacts with CAT2 to modulate its enzymatic activity in vitro. (a) Zymogram depicting changes in the enzymatic activity of CAT isoforms extracted from wild type (WT) or cat2-2 knockout mutant seedlings in response to 1 nM pAtPNP-A or pScr. Densitometric semi-quantification of bands corresponding to CAT2, normalized to the loading control (dark-coloured band on zymogram) for WT samples treated with 1 nM pAtPNP-A or pScr (mean ± SD, Student’s t-test, n = 3, P < 0.05). […] (b) Total CAT activity in protein extracted from WT seedlings assayed with Amplex Red catalase assay kit in the presence of 1 nM pAtPNP-A, rAtPNP-A, or pScr. […] (c) Enzymatic activity of rCAT2 in the presence of 100 nM pAtPNP-A, rAtPNP-A, or pScr.

Series [3] has as its system rCAT2. Kind of series: SPR of CAT2 and AtPNP-A recombinant proteins, CM5 chip, both configurations. The class given is binding, Arabidopsis thaliana. The conditions noted are these: amine coupling, 20 °C. The method, then: N-terminally 6xHis-tagged AtPNP-A and CAT2 proteins were expressed in BL21 (DE3) One Shot E. coli cells (Life Technologies), purified by affinity chromatography with Ni–NTA beads (Qiagen) and HisTrap HP column (GE Healthcare Lifesciences) as described in[21]. The purity of preparations was verified on 12.5% SDS-PAGE, stained with Coomassie Brilliant Blue (Bio-Rad). Protein identities were confirmed in MS analysis, and protein concentration was determined according to the method of Bradford using BSA as a standard.
SPR experiments were performed at 20 °C on Biacore T100 instrument operated using Biacore T100 control software (version 2.0.2, GE Healthcare Lifesciences) using Series S CM5 or NTA sensor chips as described in[21]. Kinetic analyses were performed at the flow of 100 μL min^−1 with pAtPNP-A (at 3.78 μM and consecutive twofold dilutions; 11 injections included) employed as a ligand and bovine liver CAT (C-40; Sigma) used as an analyte and immobilized on the active surface of the Series S CM5 sensor chip with amine coupling kit, while the surface regeneration was done with solution of glycine, pH 2.0, and the final sensorgram was generated with Scrubber (BioLogic Software Pty Ltd).
Supplementary Figure S3. In vitro association of AtPNP-A and CAT2 recombinant proteins.
(a) Recombinant protein preparations used in SPR analyses. […]

Series [4] deals with A. thaliana (Col-0) mesophyll cell protoplasts. Kind of series: Mesophyll cell protoplast swelling (volume). The class given is cell-based, Arabidopsis thaliana. Conditions: 100 nM peptide or 1 μg mL^−1 rAtPNP-A, 0.4 M mannitol, 20 min, room temperature, n = 50, P < 0.0001. The text has this: Peptides containing amino acid sequence of the active region of AtPNP-A and corresponding scrambled peptides, having the same amino acid composition but in a randomized order (Fig. 1a), with or without C-terminal biotin tag, were synthesized by GenScript (Piscataway, USA) at the purity level > 95% verified with HPLC and their biological activity was verified as described previously.
Figure 1 Biologically active peptide containing the active region of AtPNP-A protein binds to CAT2. (a) Domain organization of AtPNP-A and the amino acid sequences of C-terminally biotinylated peptides used in affinity chromatography-based experiments—a peptide containing the active site of AtPNP-A (indicated as pAtPNP-A) or the corresponding scrambled peptide (indicated as pScr). Cysteine residues forming a disulfide bond, characteristic to natriuretic peptide (NP)-like molecules, are underlined. SP, signal peptide. (b) Assaying biological activity of the AtPNP-A peptide (pAtPNP-A) and purified recombinant protein (rAtPNP-A). […] In each treatment, 50 randomly selected protoplasts with diameter > 20 µm were included in quantitative analysis (scale bar = 20 µm). Protoplast volume was measured and the data obtained from an exemplar experiment are plotted. […]

A further series has as its system CAT. Kind of series: Total CAT activity in protein extracted from WT seedlings. Type of series: biochemical, Arabidopsis thaliana. The conditions noted are these: 1 nM. The method, then: as §1, §2
The next series deals with CAT2. The series is described as follows: Bimolecular fluorescence complementation (BiFC). Type of series: cell-based, Arabidopsis thaliana. Conditions: chloroplasts of tobacco leaf protoplasts, NeYFP/CeYFP fusions, mean ± SEM, n = 30, P < 0.0001. The source says:
The full-length A. thaliana AtPNP-A (At2g18660) coding region entry plasmid pENTRYAtPNP-A[46] and pCR8/GW-TOPOCAT2 were recombined separately with both pSITE-nEYFP-C1 [GenBank Accession Number GU734651] and pSITE-cEYFP-C1 [GenBank Accession Number GU734652] to create pNeYFP-AtPNP-A, pCeYFP-AtPNP-A, pNeYFP-CAT2 and pCeYFP-CAT2, respectively. Each plasmid has either the N-terminal (NeYFP) or C-terminal (CeYFP) fragment of eYFP followed by either AtPNP-A or CAT2 coding region driven by the 35S plant expression promoter. After sequence was confirmed each plasmid was transformed separately into Agrobacterium tumefaciens strain GV3101 (pMP90). Tobacco leaves were infiltrated as previously described in[50]. Briefly, A. tumefaciens strains grown in 2YT medium were harvested by centrifugation and resuspended in infiltration medium (10 mM MES pH 5.6, 10 mM MgCl2, 150 µM acetosyringone) to a final OD600 of 0.2. Equal volumes of infiltration media containing relevant BiFC strains were mixed and infiltrated into the underside of tobacco leaves using a needleless syringe. Leaves were harvested after 3 days to isolate protoplasts following[51] and then immediately imaged.
BiFC images were captured at the La Trobe University LIMS BioImaging Facility using a LSM 510 confocal laser scanning microscope (Zeiss), with a × 40/1.2 water immersion objective. The natural red autofluorescence of chlorophyll was used as a marker for chloroplasts. Excitation/emission wavelengths were 488/505–530 nm for YFP and 561/650 nm long pass for red fluorescence. At least three images containing one or more protoplasts were taken for each of the plasmid construct combinations. Each image captured three separate filter scans, including YFP, red fluorescence and bright field. Post-processing of images was performed with ImageJ version 1.48 software (https://imagej.nih.gov/ij/). For each image the contrast for each panel was set at automatic contrast. A merged image was generated for reference with a 10 µm scale bar. The red fluorescence only panel was used to encircle ten chloroplasts as region of interest (ROI), then the YFP fluorescence (BiFC) calculated for each ROI was divided by the red fluorescence calculated for the same ROI. All BiFC/red fluorescence points were plotted using GraphPadPrism7 (GraphPadSoftware). Mean and standard error were calculated for each BiFC combination. All statistical analyses were performed using GraphPadPrism7.
Figure 4 AtPNP-A interacts with CAT2 in vivo. […] Exemplar merged images of protoplasts isolated from a leaf infiltrated with different combinations of N- or C-terminally tagged CAT2 and AtPNP-A are shown. (g) BiFC/Red fluorescence chloroplast analysis with mean ± SEM in pink.

Regarding `O=C(O)c1ccccc1O` [SA], the CAT2 transcript entry in the series with CAT2 transcript is “Increases in CAT2 transcript”.

B1: synthetic peptide containing the active region of AtPNP-A (amino acids 33-66) (peptide)
peptide: PYTRSACYGTQRETLVVGVKNNLWQNGRACGRRY
modifications: disulfide 7-30 (inferred); also: synthesized with or without C-terminal biotin
notes: active region of Arabidopsis thaliana plant natriuretic peptide A (AtPNP-A), amino acids 33-66; also called pAtPNP-A; AtPNP-A peptide; source: synthetic peptide (GenScript, purity > 95%)
For B1, in series [1], the koff turned out to be 0.000941 s⁻¹ and the kon was 10900 M⁻¹ s⁻¹.

B2: rAtPNP-A: N-terminally 6xHis-tagged AtPNP-A expressed in BL21 (DE3) One Shot E. coli cells (protein)
chain: AQGKAVYYDPPYTRSACYGTQRETLVVGVKNNLWQNGRACGRRYRVRCIGATYNFDRACTGRTVDVKVVDFCREPCNGDLNLSRDAFRVIANTDAGNIRVVYTPI
modifications: left off: His6, N-terminal, state not stated
notes: N-terminally 6xHis-tagged AtPNP-A expressed in BL21 (DE3) One Shot E. coli cells
Consider B2, for which the “In vitro enzymatic activity of rCAT2” value with rCAT2 [2] is on record as “significantly enhanced”. The “SPR binding of recombinant AtPNP-A to CAT2” value in the series with rCAT2 [3] is given as “bind specifically to CAT2”. In series [4], the “Protoplast swelling response (volume)” value is reported as “comparable to that elicited by an equimolar amount of the recombinant AtPNP-A (rAtPNP-A)”. The “Total CAT activity of protein extracts” value in the series with CAT (WT seedling protein, Amplex Red kit, mean ± SD, n = 3, P < 0.05) is “elevated total CAT activity”. For the same molecule, in the series with CAT (total protein extracted from WT seedlings, n = 3), the “H2O2 breakdown by WT seedling protein extract” value is reported as “more rapid H2O2 breakdown”.

B3: CeYFP-AtPNP-A: C-terminal (CeYFP) fragment of eYFP followed by AtPNP-A coding region (protein)
chain: AQGKAVYYDPPYTRSACYGTQRETLVVGVKNNLWQNGRACGRRYRVRCIGATYNFDRACTGRTVDVKVVDFCREPCNGDLNLSRDAFRVIANTDAGNIRVVYTPI
modifications: left off: CeYFP (C-terminal fragment of eYFP), N-terminal, kept
For the molecule B3, the “BiFC / Red fluorescence signal, interaction with CAT2” value was “significantly higher” in the series with CAT2 and “greatest BiFC / Red fluorescence signal” with CAT2 (listed as CeYFP-tagged AtPNP-A).

B4: NeYFP-fused AtPNP-A: N-terminal (NeYFP) fragment of eYFP followed by AtPNP-A coding region (protein)
chain: AQGKAVYYDPPYTRSACYGTQRETLVVGVKNNLWQNGRACGRRYRVRCIGATYNFDRACTGRTVDVKVVDFCREPCNGDLNLSRDAFRVIANTDAGNIRVVYTPI
modifications: left off: NeYFP (N-terminal fragment of eYFP), N-terminal, kept
As to B4, in the series with CAT2, the “BiFC / Red fluorescence signal, interaction with CAT2” value is given as “Lower BiFC/fluorescence signal”.

The record behind these values is paper PMC7665192, “A natriuretic peptide from Arabidopsis thaliana (AtPNP-A) can modulate catalase 2 activity” (Scientific Reports, 2020).
